The source of these data is patent US20040048311A1.

The target of experiment [1] is 38C13 IgM. The experiment can be described thus: antibody microarray on FAST slide, purified 38C13 IgM, detection with goat anti-mouse IgM HRP, chemiluminescence.
In experiment [2] the target is 38C13 IgM. Description: antibody microarray on FAST slide, 38C13 cell extract at 1:2000 dilution, detection with goat anti-mouse IgM HRP, chemiluminescence.

In the experiment with 38C13 IgM [1], S1C5 anti-idiotype monoclonal antibody had a lowest IgM concentration giving signal of 0.1 µg/mL and a lowest spotted S1C5 concentration giving signal of 25 µg/mL. In addition, the lowest printed S1C5 concentration giving signal with 38C13 IgM [2] amounted to 50 µg/mL.
